Experiment [1] has as its target T1, full-length hCDCP1 with N-terminal c-Myc tag (expression vector GS01), on Ba/F3-hCDCP1 cells or … (human, UniProt Q9H5V8 30-836).
T1 construct: also called human CDCP1; hCDCP1 forced expression cells
T1 sequence: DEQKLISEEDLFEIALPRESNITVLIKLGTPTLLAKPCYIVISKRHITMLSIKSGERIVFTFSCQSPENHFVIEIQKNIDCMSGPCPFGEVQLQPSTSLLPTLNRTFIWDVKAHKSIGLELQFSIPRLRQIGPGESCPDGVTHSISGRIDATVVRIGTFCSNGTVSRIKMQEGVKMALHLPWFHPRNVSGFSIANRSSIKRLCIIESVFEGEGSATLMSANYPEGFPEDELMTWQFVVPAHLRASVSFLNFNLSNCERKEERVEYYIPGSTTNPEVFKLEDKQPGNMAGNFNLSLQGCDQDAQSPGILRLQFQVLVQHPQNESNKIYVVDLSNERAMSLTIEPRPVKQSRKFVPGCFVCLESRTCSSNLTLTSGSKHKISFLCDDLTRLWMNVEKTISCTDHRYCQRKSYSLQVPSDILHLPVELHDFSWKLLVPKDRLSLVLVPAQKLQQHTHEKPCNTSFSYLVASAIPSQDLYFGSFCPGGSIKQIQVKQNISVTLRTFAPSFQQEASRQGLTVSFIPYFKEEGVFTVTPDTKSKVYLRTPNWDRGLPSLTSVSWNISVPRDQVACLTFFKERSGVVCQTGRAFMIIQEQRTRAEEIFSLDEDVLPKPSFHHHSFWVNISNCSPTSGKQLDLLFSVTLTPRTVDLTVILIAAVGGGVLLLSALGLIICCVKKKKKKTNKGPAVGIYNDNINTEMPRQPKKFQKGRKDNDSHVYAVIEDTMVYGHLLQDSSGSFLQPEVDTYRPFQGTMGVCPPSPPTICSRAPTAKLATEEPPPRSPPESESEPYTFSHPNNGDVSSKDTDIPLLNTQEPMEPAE
The experiment is described as follows: flow cytometry on Ba/F3-hCDCP1 cells.

In experiment [2] the target is T2, crab-eating macaque CDCP1 with N-terminal c-Myc tag (expression vector GS02), on crab-eating macaque … (crab-eating macaque (Macaca …, UniProt Q9H5V8 30-836 (human entry))).
T2 chain: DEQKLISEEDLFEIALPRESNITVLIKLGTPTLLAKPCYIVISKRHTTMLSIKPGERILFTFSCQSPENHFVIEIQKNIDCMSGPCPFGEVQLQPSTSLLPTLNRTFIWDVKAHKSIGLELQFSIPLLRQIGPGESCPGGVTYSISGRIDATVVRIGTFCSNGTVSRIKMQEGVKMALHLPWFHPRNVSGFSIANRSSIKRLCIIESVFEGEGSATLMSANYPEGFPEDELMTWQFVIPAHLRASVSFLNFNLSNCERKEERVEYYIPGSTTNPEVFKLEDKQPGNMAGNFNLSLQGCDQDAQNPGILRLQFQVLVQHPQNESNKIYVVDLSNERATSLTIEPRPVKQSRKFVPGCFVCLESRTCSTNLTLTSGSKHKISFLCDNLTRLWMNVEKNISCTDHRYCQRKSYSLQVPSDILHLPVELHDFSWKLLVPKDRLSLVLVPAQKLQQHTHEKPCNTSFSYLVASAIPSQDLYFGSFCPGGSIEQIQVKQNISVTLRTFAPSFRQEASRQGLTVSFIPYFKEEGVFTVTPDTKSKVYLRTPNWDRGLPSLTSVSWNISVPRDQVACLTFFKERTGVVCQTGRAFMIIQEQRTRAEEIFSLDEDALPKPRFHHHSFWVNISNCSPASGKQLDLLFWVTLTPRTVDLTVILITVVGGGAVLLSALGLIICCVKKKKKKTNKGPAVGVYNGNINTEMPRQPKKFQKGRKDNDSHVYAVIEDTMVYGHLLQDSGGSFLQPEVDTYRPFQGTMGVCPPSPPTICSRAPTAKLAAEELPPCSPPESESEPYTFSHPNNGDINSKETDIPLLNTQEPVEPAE
The experiment is described as follows: flow cytometry on crab-eating macaque CDCP1-expressing CHO-K1 cells. The text has this: The hCDCP1-expressing CHO-K1 cells and the crab-eating macaque CDCP1-expressing CHO-K1 cells were exfoliated and dispersed using 0.25% trypsin/EDTA (Nacalai Tesque, Inc.), and were then reacted with various concentrations of individual mouse-human chimeric antibodies, namely, mh12A041HCori/LCori, mh14A025HCori/LCori, mh14A043HCori/LCori, mh14A055, mh14A063HCori/LCori, and mh14A091. Thereafter, the binding property of the antibodies was observed by flow cytometry (FIG. 9). As a result, these 6 antibodies all reacted with the crab-eating macaque CDCP1, and in particular, the 5 antibodies other than mh14A055 reacted with both the human CDCP1 and the crab-eating macaque CDCP1 at the same levels.
A general note: Flow cytometry measures light scatter and fluorescence of single cells or particles in a stream.

Experiment [3] concerns the target T3, hCDCP1 expressed by PC3 cells and other human cancer cell lines (endogenous) (human, UniProt Q9H5V8 30-836).
T3 construct: Endogenous protein on cell lines; PC3 is said to express also the cleaved form; also called human CDCP1
T3 sequence: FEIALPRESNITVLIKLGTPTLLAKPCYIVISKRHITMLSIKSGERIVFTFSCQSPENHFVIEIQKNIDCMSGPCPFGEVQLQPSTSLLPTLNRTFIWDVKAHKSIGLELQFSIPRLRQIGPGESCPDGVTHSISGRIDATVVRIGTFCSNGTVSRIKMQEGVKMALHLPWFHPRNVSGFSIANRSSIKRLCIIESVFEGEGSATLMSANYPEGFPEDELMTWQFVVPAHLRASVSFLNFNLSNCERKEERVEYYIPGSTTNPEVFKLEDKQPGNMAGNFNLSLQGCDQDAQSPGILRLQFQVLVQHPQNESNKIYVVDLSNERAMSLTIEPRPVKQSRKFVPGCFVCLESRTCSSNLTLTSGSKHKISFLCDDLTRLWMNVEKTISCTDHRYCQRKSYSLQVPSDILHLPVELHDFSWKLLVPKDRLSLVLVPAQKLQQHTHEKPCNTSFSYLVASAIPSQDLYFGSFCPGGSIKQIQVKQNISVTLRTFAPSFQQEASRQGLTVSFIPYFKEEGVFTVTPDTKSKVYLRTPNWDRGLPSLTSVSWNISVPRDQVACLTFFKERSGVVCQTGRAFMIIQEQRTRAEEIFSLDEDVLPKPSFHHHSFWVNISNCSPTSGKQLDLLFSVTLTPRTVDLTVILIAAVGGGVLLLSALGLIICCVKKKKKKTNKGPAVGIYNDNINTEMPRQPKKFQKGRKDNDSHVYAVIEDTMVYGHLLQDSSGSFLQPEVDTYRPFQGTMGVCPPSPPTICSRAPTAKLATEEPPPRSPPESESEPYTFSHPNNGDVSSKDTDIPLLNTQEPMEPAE
The experiment is described as follows: cancer cells that express hCDCP1; method not given.

Positions count from the first letter of the chain named.

B1: mh12A041HCori/LCori (antibody, human IgG1, kappa, V domains shown)
VH: EVQLQESGPGILQPSQTLSLTCSFSGFSLSTSGMGVSWIRQPSGKGLEWLAHIYWDDDKRYNPSLKSRLTISKDTSSNQVFLKITSVDTADTATYYCARSGSYYGSSLDCWGQGTTLTVSS
VL: DVLMTQTPLSLPVSLGDQASISCRSSQSIVHSNGNTYLEWYLQKPGQSPKLLIYKVSNRFSGVPDRFSGSGSGTDFTLKISRVEAEDLGVYYCFQGSHVPWTFGGGTKLEIKR
notes: mouse-human chimeric antibody, human IgG1/kappa constant regions; also called mh12A041HCori/LCori-biotin (biotinylated form)
Turning to B1, the binding result in experiment [1] and in experiment [2] was “binds” each time.

B2: h14A063VH2/VL1 (antibody, human IgG1, kappa)
heavy: not shown
light: EIVLTQSPATLSLSPGERATLSCRASESVDSYGNSFMHWYQQKPGQAPRLLIFLASNLESGVPARFSGSGSRTDFTLTISSLEPEDFAVYYCQQNNEDPWTFGGGTKVEIKRTVAAPSVFIFPPSDEQLKSGTASVVCLLNNFYPREAKVQWKVDNALQSGNSQESVTEQDSKDSTYSLSSTLTLSKADYEKHKVYACEVTHQGLSSPVTKSFNRGEC
notes: humanized antibody, human IgG1/kappa constant regions
With B2, the binding result in experiment [1] is listed as “binds”.

B3: h14A063VH2/VL2 (antibody, human IgG1, kappa)
heavy: not shown
light: B2 light with R72G
notes: as for B2
For B3, the binding result in experiment [1] was “binds”.

B4: h14A063VH3/VL1 (antibody, human IgG1, kappa)
heavy: not shown
light: B2 light
notes: as for B2
Regarding B4, in experiment [1], the binding result is recorded as “binds”.

B5: h14A063VH4/VL1 (antibody, human IgG1, kappa, V domains shown)
VH: EVQLVESGGGLVQPGGSLRLSCAASGFTFSSYTMSWVRQAPEKRLEWVAYISSGGGSTYYPDTVKGRFTISRDNAKNSLYLQMNSLRAEDTAVYYCARYDLGFAYWGQGTLVTVSS
VL: EIVLTQSPATLSLSPGERATLSCRASESVDSYGNSFMHWYQQKPGQAPRLLIFLASNLESGVPARFSGSGSRTDFTLTISSLEPEDFAVYYCQQNNEDPWTFGGGTKVEIKR
notes: humanized antibody, human IgG1/kappa constant regions; also called h14A063VH4/VL1-biotin (biotinylated form)
As for B5, in experiment [1], the binding result is given as “binds”.

B6: h14A063VH4/VL2 (antibody, human IgG1, kappa, V domains shown)
VH: B5 VH
VL: B5 VL with R72G
notes: humanized antibody, human IgG1/kappa constant regions; also called h14A063VH4/VL2-biotin (biotinylated form)
In the case of B6, the binding result in experiment [1] was “binds”.

B7: h14A063VH3/VL2 (antibody, human IgG1, kappa)
heavy: not shown
light: B2 light with R72G
notes: as for B2
Turning to B7, in experiment [1], the binding result is “binds”.

B8: CUB4 antibody (antibody, human IgG1, kappa, V domains shown)
VH: EVQLVESGGGLVQPGGSLRLSCAASGFTFNSYGMSWVRQAPGKGLEWVATISSGGSYKYYVDSVKGRFTISRDNAKNSLYLQMNSLRAEDTAVYYCARHPDYDGVWFAYWGQGTLVTVSS
VL: EIVLTQSPATLSLSPGERATMSCSVSSSVFYLHWYQQKPGQAPRLWIYDTSKLASGIPARFSGSGSGTDFTLTISSLEPEDFAVYYCQQWNSNPPTFGGGTKVEIKR
notes: also called CUB4-biotin (biotinylated form)
Regarding B8, in experiment [3], the binding result is recorded as “binds”.

B9: mh14A025HCori/LCori (antibody, human IgG1, kappa, V domains shown)
VH: EVQLQESGAELVRPGALVKLSCKASGFNIKDYYMHWVKQRPEQGLEWIGWIDPENGNTIYDPKFQGKASITADTSSNTAYLQLSSLTSEDTAVYYCGGLLYAMDYWGQGTSVTVSS
VL: DIQMTQTTSSLSASLGDRVTISCRASQDISNYLNWYQQKPDGTVKLLIYFTSRLHSGVPSRFSGSGSGTDYSLTISNLEQEDIATYFCQQGNTLPRTFGGGTKLEIRR
notes: mouse-human chimeric antibody, human IgG1/kappa constant regions; also called mh14A025HCori/LCori-biotin (biotinylated form)
On to B9, for which the binding result in experiment [1] and in experiment [2] was “binds” throughout.

B10: mh14A043HCori/LCori (antibody, human IgG1, kappa, V domains shown)
VH: B9 VH with H35N, G97Y, L99S, L100S, A102R, M103F, D104T, S111L
VL: QIVLIQSPALMSASPGEKVTMTCSASSSVSYMYWYQQKPRSSPKPWIYLTSNLASGVPARFSGSGSGTSYSLTISSMEAEDAATYYCQQWSSNPFTFGSGTKLEIKR
notes: mouse-human chimeric antibody, human IgG1/kappa constant regions; also called mh14A043HCori/LCori-biotin (biotinylated form)
On to B10, for which the binding result in experiment [1] and in experiment [2] was “binds” in each case.

B11: 25A11 antibody (antibody, human IgG1, kappa, V domains shown)
VH: QVQLQQPGAELVKPGASVKMSCKASGYTFTSYYMYWVKQRPGQGLEWIGEINPSHGGTNFNEKFKNKATLTVDKSSSTVYMQLSSLTSEDSAVYYCTRGGNYPYFAMDYWGQGTSVTVSS
VL: B9 VL with F50Y, R96W, R107K
notes: also called 25A11 biotin; 25A11-biotin (biotinylated form)
On to B11, for which the binding result in experiment [3] is given as “binds”.

B12: mh14A063HCori/LCori (antibody, human IgG1, kappa, V domains shown)
VH: B5 VH with V5Q, R19K, A40T, S53N, S78T, N84S, R87K, A88S, V93M
VL: NIVLTQSPASLAVSLGQRATISCRASESVDSYGNSFMHWYQQKPGQPPKLLIFLASNLESGVPARFSGSGSRTDFTLTIDPVEADDAATYYCQQNNEDPWTFGGGTNLEIKR
notes: mouse-human chimeric antibody, human IgG1/kappa constant regions; also called mh14A063HCori/LCori-biotin (biotinylated form)
Regarding B12, the binding result in experiment [1] and in experiment [2] was “binds” throughout.

The values above are taken from patent US20230050380A1 (CHIOME BIOSCIENCE, published 2023).
